{"source": "the supplement of paper PMC9112550", "about": "“Optimization of the antimicrobial peptide Bac7 by deep mutational scanning” (BMC Biology, 2022);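 also: peptides expressed intracellularly from a pBAD plasmid library in pooled LB shake-flask culture, induced with 0.3% L-arabinose, DNA abundance read by NGS, three biological replicates, DESeq2 with apeglm shrinkage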", "data": [{"tested_on": "Escherichia coli TOP10", "experiment": "shrunken log2 fold change of peptide-encoding DNA abundance (4.5 h post-induction vs induction); higher = less antimicrobial activity (less host growth inhibition)", "details": "time post-induction: 4.5 h; library: site-saturation at positions 5, 18, 19, 20", "values": [{"sequence": "RRIRQRPPRLPRPRPRPESTPRP", "shrunken log2 fold change": -0.0105}, {"sequence": "RRIRFRPPRLPRPRPRPADNPRP", "shrunken log2 fold change": 0.0503}, {"sequence": "RRIRFRPPRLPRPRPRPHHSPRP", "shrunken log2 fold change": -0.883}, {"sequence": "RRIRIRPPRLPRPRPRPIPIPRP", "shrunken log2 fold change": -0.317}, {"sequence": "RRIRLRPPRLPRPRPRPPERPRP", "shrunken log2 fold change": 0.566}, {"sequence": "RRIRQRPPRLPRPRPRPTLIPRP", "shrunken log2 fold change": -0.131}, {"sequence": "RRIRTRPPRLPRPRPRPDFIPRP", "shrunken log2 fold change": -0.547}, {"sequence": "RRIRGRPPRLPRPRPRPSCNPRP", "shrunken log2 fold change": 0.588}, {"sequence": "RRIRHRPPRLPRPRPRPSRTPRP", "shrunken log2 fold change": 0.138}, {"sequence": "RRIRTRPPRLPRPRPRPSCVPRP", "shrunken log2 fold change": -0.185}, {"sequence": "RRIRSRPPRLPRPRPRPKAYPRP", "shrunken log2 fold change": -0.0451}, {"sequence": "RRIRMRPPRLPRPRPRPTSRPRP", "shrunken log2 fold change": 0.385}, {"sequence": "RRIRVRPPRLPRPRPRPKFWPRP", "shrunken log2 fold change": 0.48}, {"sequence": "RRIRDRPPRLPRPRPRPFFIPRP", "shrunken log2 fold change": -0.191}, {"sequence": "RRIRLRPPRLPRPRPRPGFNPRP", "shrunken log2 fold change": -0.0341}, {"sequence": "RRIRNRPPRLPRPRPRPSCVPRP", "shrunken log2 fold change": -0.599}, {"sequence": "RRIRVRPPRLPRPRPRPYHSPRP", "shrunken log2 fold change": -1.02}, {"sequence": "RRIRDRPPRLPRPRPRPHTNPRP", "shrunken log2 fold change": -0.367}, {"sequence": "RRIRDRPPRLPRPRPRPKDMPRP", "shrunken log2 fold change": 0.0342}, {"sequence": "RRIRDRPPRLPRPRPRPMWFPRP", "shrunken log2 fold change": 0.0563}, {"sequence": "RRIRNRPPRLPRPRPRPSLGPRP", "shrunken log2 fold change": 0.0885}, {"sequence": "RRIRLRPPRLPRPRPRPHYNPRP", "shrunken log2 fold change": -0.779}, {"sequence": "RRIRTRPPRLPRPRPRPMHVPRP", "shrunken log2 fold change": -0.0197}, {"sequence": "RRIRVRPPRLPRPRPRPPNMPRP", "shrunken log2 fold change": -0.316}, {"sequence": "RRIRNRPPRLPRPRPRPCFCPRP", "shrunken log2 fold change": -0.337}, {"sequence": "RRIRPRPPRLPRPRPRPWIEPRP", "shrunken log2 fold change": -0.162}, {"sequence": "RRIRRRPPRLPRPRPRPQNQPRP", "shrunken log2 fold change": 0.0537}, {"sequence": "RRIRTRPPRLPRPRPRPMGQPRP", "shrunken log2 fold change": 0.103}, {"sequence": "RRIRHRPPRLPRPRPRPCRRPRP", "shrunken log2 fold change": -0.131}, {"sequence": "RRIRKRPPRLPRPRPRPYSSPRP", "shrunken log2 fold change": -0.239}, {"sequence": "RRIRMRPPRLPRPRPRPPKVPRP", "shrunken log2 fold change": 0.272}, {"sequence": "RRIRYRPPRLPRPRPRPQSIPRP", "shrunken log2 fold change": -0.0346}, {"sequence": "RRIRDRPPRLPRPRPRPMVRPRP", "shrunken log2 fold change": 0.152}, {"sequence": "RRIRFRPPRLPRPRPRPCFHPRP", "shrunken log2 fold change": -0.894}, {"sequence": "RRIRIRPPRLPRPRPRPRHWPRP", "shrunken log2 fold change": -0.12}, {"sequence": "RRIRIRPPRLPRPRPRPPRNPRP", "shrunken log2 fold change": 0.217}, {"sequence": "RRIRGRPPRLPRPRPRPNDSPRP", "shrunken log2 fold change": -0.0552}, {"sequence": "RRIRQRPPRLPRPRPRPQFDPRP", "shrunken log2 fold change": -0.178}, {"sequence": "RRIRKRPPRLPRPRPRPYKIPRP", "shrunken log2 fold change": -0.305}, {"sequence": "RRIRIRPPRLPRPRPRPPKLPRP", "shrunken log2 fold change": 0.0517}, {"sequence": "RRIRSRPPRLPRPRPRPGKTPRP", "shrunken log2 fold change": -0.112}, {"sequence": "RRIRPRPPRLPRPRPRPLWSPRP", "shrunken log2 fold change": -0.0489}, {"sequence": "RRIRQRPPRLPRPRPRPNCEPRP", "shrunken log2 fold change": 0.117}, {"sequence": "RRIRQRPPRLPRPRPRPIPEPRP", "shrunken log2 fold change": 0.0343}, {"sequence": "RRIRKRPPRLPRPRPRPMDIPRP", "shrunken log2 fold change": 0.0655}, {"sequence": "RRIRVRPPRLPRPRPRPDSPPRP", "shrunken log2 fold change": 0.0663}, {"sequence": "RRIRHRPPRLPRPRPRPWINPRP", "shrunken log2 fold change": -0.616}, {"sequence": "RRIRFRPPRLPRPRPRPIYWPRP", "shrunken log2 fold change": 0.0843}, {"sequence": "RRIRPRPPRLPRPRPRPIRFPRP", "shrunken log2 fold change": -0.119}, {"sequence": "RRIRRRPPRLPRPRPRPVMDPRP", "shrunken log2 fold change": -0.0641}, {"sequence": "RRIRMRPPRLPRPRPRPLYYPRP", "shrunken log2 fold change": -0.53}, {"sequence": "RRIRIRPPRLPRPRPRPRIKPRP", "shrunken log2 fold change": -0.466}, {"sequence": "RRIRGRPPRLPRPRPRPNHYPRP", "shrunken log2 fold change": -0.416}, {"sequence": "RRIRDRPPRLPRPRPRPCIPPRP", "shrunken log2 fold change": -0.123}, {"sequence": "RRIRPRPPRLPRPRPRPHWTPRP", "shrunken log2 fold change": -0.119}, {"sequence": "RRIRCRPPRLPRPRPRPLFEPRP", "shrunken log2 fold change": 0.193}, {"sequence": "RRIRIRPPRLPRPRPRPICEPRP", "shrunken log2 fold change": -0.0283}, {"sequence": "RRIRDRPPRLPRPRPRPVDPPRP", "shrunken log2 fold change": 0.0517}, {"sequence": "RRIRGRPPRLPRPRPRPSIMPRP", "shrunken log2 fold change": 0.16}, {"sequence": "RRIRWRPPRLPRPRPRPQYYPRP", "shrunken log2 fold change": -0.0952}, {"sequence": "RRIRVRPPRLPRPRPRPKICPRP", "shrunken log2 fold change": -0.0576}, {"sequence": "RRIRSRPPRLPRPRPRPHNEPRP", "shrunken log2 fold change": -0.382}, {"sequence": "RRIRARPPRLPRPRPRPDFDPRP", "shrunken log2 fold change": 1.07}, {"sequence": "RRIRGRPPRLPRPRPRPMDMPRP", "shrunken log2 fold change": -0.02}, {"sequence": "RRIRLRPPRLPRPRPRPMPIPRP", "shrunken log2 fold change": 0.301}, {"sequence": "RRIRGRPPRLPRPRPRPQNCPRP", "shrunken log2 fold change": 0.0394}, {"sequence": "RRIRFRPPRLPRPRPRPCPMPRP", "shrunken log2 fold change": -0.00789}, {"sequence": "RRIRIRPPRLPRPRPRPIVVPRP", "shrunken log2 fold change": -0.666}, {"sequence": "RRIRPRPPRLPRPRPRPYISPRP", "shrunken log2 fold change": -0.75}, {"sequence": "RRIRDRPPRLPRPRPRPWELPRP", "shrunken log2 fold change": 0.18}, {"sequence": "RRIRTRPPRLPRPRPRPCSLPRP", "shrunken log2 fold change": -0.128}, {"sequence": "RRIRVRPPRLPRPRPRPRPNPRP", "shrunken log2 fold change": 0.381}, {"sequence": "RRIRTRPPRLPRPRPRPDDYPRP", "shrunken log2 fold change": -0.111}, {"sequence": "RRIRPRPPRLPRPRPRPHCSPRP", "shrunken log2 fold change": -0.0583}, {"sequence": "RRIRNRPPRLPRPRPRPHHGPRP", "shrunken log2 fold change": -0.00683}]}]}
